Measurements reported in patent US8273705B2, “Conversion of apoptotic proteins” (The Burnham Institute, priority 2002, dated 2012).
Where a chain is given by its changes, count along the chain named. In names and notes the source's numbering stands. Entries after “also recorded” stand apart in the source; their conditions may differ.

B1: Bcl-2/1-90: Bcl-2 mutant comprising the first 90 N-terminal amino acids (protein, UniProt P10415 1-90, looked up, fragment)
chain: MAHAGRTGYDNREIVMKYIHYKLSQRGYEWDAGDVGAAPPGAAPAPGIFSSQPGHTPHPAASRDPVARTSPLQTPAAPGAAAGPALSPVP
modifications: GFP fusion
notes: Bcl-2 mutant comprising the first 90 N-terminal amino acids
B2: TR3/ΔDBD/L487A: TR3/ΔDBD with Leu487 replaced with Ala (protein)
chain: MPCIQAQYGTPAPSPGPRDHLASDPLTPEFIKPTMDLASPEAAPAAPTALPSFSTFMDGYTGEFDTFLYQLPGTVQPCSSASSSASSTSSSSATSPASASFKFEDFQVYGCYPGPLSGPVDEALSSSGSDYYGSPCSAPSPSTPSFQPPQLSPWDGSFGHFSPSQTYLVLHRLQCARGFGDWIDSIAAFSRSLHSLLVDVPAFACLSALVLITDRHGLQEPRRVEELQNRIASCLKEHVAAVAGEPQPASCLSRLLGKLPELRTLCTQGLQRIFYLKLEDLVPPPPIIDKIFMDTLPF
modifications: left off: large carriers; small tags and cut ends
notes: TR3/ΔDBD with Leu487 replaced with Ala
B3: TR3/ΔDBD/I483A: TR3/ΔDBD with Ile483 replaced with Ala (protein)
chain: B2 chain with I183A, A187L
modifications: left off: large carriers; small tags and cut ends
notes: TR3/ΔDBD with Ile483 replaced with Ala
B4: DC1: C-terminal fragment of TR3 (467-536 aa), 69 amino acids (protein, listed as Homo sapiens)
chain: GLVLHRLQCARGFGDWIDSILAFSRSLHSLLVDVPAFACLSALVLITDRHGLQEPRRVEELQNRIASCLK
B5: TR3/ΔDBD/ΔDC1: TR3/ΔDBD with DC1 deleted (protein)
chain: MPCIQAQYGTPAPSPGPRDHLASDPLTPEFIKPTMDLASPEAAPAAPTALPSFSTFMDGYTGEFDTFLYQLPGTVQPCSSASSSASSTSSSSATSPASASFKFEDFQVYGCYPGPLSGPVDEALSSSGSDYYGSPCSAPSPSTPSFQPPQLSPWDGSFGHFSPSQTYEHVAAVAGEPQPASCLSRLLGKLPELRTLCTQGLQRIFYLKLEDLVPPPPIIDKIFMDTLPF
modifications: left off: large carriers; small tags and cut ends
notes: TR3/ΔDBD with DC1 deleted

How the values were obtained:
LNCaP cells = assay: Dominant-negative Bcl-2/1-90 in LNCaP cells; format: cell-based
Procedure: The next approach involved using a fragment of Bcl-2 consisting of the TR3 interaction domain (loop region) to identify whether it could act in a dominant-negative fashion to inhibit TR3 mitochondrial targeting in LNCaP cells. Cells transiently transfected with the GFP-Bcl-2/1-90 mutant comprising of the first 90 N-terminal amino acids were treated with TPA to induce expression of TR3 and mitochondrial targeting of the endogenous TR3. […] Thus, Bcl-2/1-90 inhibits TR3 mitochondrial targeting, probably by competing with endogenous Bcl-2 for binding to TR3.
The effect of inhibiting endogenous Bcl-2 expression on the TR3-dependent apoptosis in MGC80-3 cells was next analyzed. […] However, 3-Cl-AHPC-induced apoptosis was suppressed by more than half (about 60%) in Bcl-2 siRNA-transfected cells. Similar results were obtained in H460 lung cancer cells. […] Thus, Bcl-2 can manifest a pro-apoptotic phenotype in settings where TR3 is expressed and targets to mitochondria.

Bcl-2 = target: T1, Bcl-2 (Homo sapiens, UniProt P10415); assay: Co-IP assay of TR3 mutants with Bcl-2 in HEK293T cells; format: binding; conditions: GFP fusions co-transfected with Bcl-2 in HEK293T cells
T1 construct: expressed in transfected cells; host or cells: HEK293T
T1 sequence (P10415 whole entry, the tested form may be a part): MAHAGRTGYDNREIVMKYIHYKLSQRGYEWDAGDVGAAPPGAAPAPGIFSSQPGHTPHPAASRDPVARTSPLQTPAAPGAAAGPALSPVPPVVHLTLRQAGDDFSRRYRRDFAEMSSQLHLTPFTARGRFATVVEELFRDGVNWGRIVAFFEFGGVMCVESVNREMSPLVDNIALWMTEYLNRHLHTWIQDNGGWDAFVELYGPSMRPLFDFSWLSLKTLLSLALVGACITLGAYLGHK
Procedure: TR3/Bcl-2 interaction assays—Reporter gene assays using NurRE-tk-CAT in CV-1 cells, and GST pull-down assay were described previously (Li, et al. 2000 Science 289, 1159-1164). For the mammalian two-hybrid assays, CV-1 cells were co-transfected with pcDNA-Gal4TAD-TR3 or pcDNA-Gal4TAD-TR3/ΔDBD and pcDNA-Gal4DBD-Bcl-2/ΔTM along with a luciferase reporter gene driven by four copies of the Gal4-binding site. The cells were harvested and reporter gene activity was measured. For Co-IP assays, HEK293T cells were transiently transfected with various expression plasmids using a modified calcium phosphate precipitation method (Wu et al, 1997) in the presence of caspase inhibitors (zVAD-fmk) to prevent degradation of TR3 protein due to apoptosis. Cells were suspended in lysis buffer (50 mM Tris-HCl, PH7.4; 150 mM NaCl; 20 mM EDTA; 1% NP-40; 1 mM PMSF; 50 μg/ml Leupeptin; […]; 0.1 mM Na3VO4; and 1 mM DTT). Cells extracts were cleared by incubation with the Protein A/G plus Agarose beads (Santa Cruz) and then incubated with appropriate antibody and 30 μl of Protein A or G plus Agarose beads overnight at 4° C. Beads were then washed and boiled in Laemmli gel-loading solution before performing SDS-PAGE/immunoblotting using the following polyclonal or monoclonal antibodies: monoclonal mouse anti-GFP (Medical and Biological Laboratories), monoclonal mouse anti-HA (Roche Molecular Biochemicals), monoclonal mouse anti-FLAG (Sigma), monoclonal mouse anti-Myc (Santa Cruz), polyclonal rabbit anti-TR3 (Active Motif), or monoclonal mouse anti-Bcl-2 (Santa Cruz). Immunoreactive products were detected by chemiluminescence with an enhanced chemiluminescence system (ECL) (Amersham).
TR3/ΔDBD, which can constitutively reside on mitochondria, was also analyzed by co-immunoprecipitation (Co-IP) assay for its interaction with Bcl-2. GFP-TR3/ΔDBD was transfected into human embryonic kidney cell line 293T alone or together with a Bcl-2 expression vector. The expressed GFP-TR3/ΔDBD mutant protein as then precipitated by using either anti-Bcl-2 antibody or control IgG and detected by western blotting using anti-GFP antibody. The same membranes were also blotted with anti-Bcl-2 antibody to determine precipitation specificity and efficiency. Input represents 10% of total cell extract used in the precipitation assays.
Several TR3 mutants were analyzed to determine the domain of TR3 which interacts with Bcl-2. The TR3 mutants are schematically represented in FIG. 1. A Co-IP assay was performed, as described above. […] Cell extracts were prepared and incubated with anti-Bcl-2 antibody or control IgG for Co-IP assays. Lysates were immunoprecipitated by using either polyclonal rabbit anti-Bcl-2 antibody or control IgG. Cell lysates and immunoprecipitates were examined by immunoblotting using anti-GFP antibody. The same membranes were also blotted with anti-Bcl-2 antibody (Santa Cruz) to determine IP specificity and efficiency. […] This Co-IP was specific because Bcl-2 co-transfection was necessary. […] Thus, the DC1 region in the TR3 LBD is involved in the Bcl-2 interaction.
To further determine the interaction of DC1 with Bcl-2, a region of hydrophobic amino acids ([…]—SEQ ID NO: 1) was deleted from TR3/ΔDBD, and the resulting mutant (TR3/ΔDBD/Δ471-488) was analyzed for its interaction with Bcl-2. TR3/ΔDBD/[…], with eighteen amino acids from 471 to 488 in the DC1 region deleted from TR3/ΔDBD, TR3/ΔDBD/I483A (with Ile483 replaced with Ala) and TR3/ΔDBD/L487A (with Leu487 replaced with Ala) were analyzed for their interaction with Bcl-2 by in vivo Co-IP assay as described above.

293T cells [1] = assay: DAPI apoptosis assay in 293T cells; format: cell-based, human; conditions: 293T, co-expressed with Bcl-2, 36 h, DAPI
Procedure: Apoptosis assays—For nuclear morphological change analysis, cells were trypsinized, washed with PBS, fixed with 3.7% paraformaldehyde, and stained with DAPI (4,6-diamidino-2-phenylindole) (50 μg/ml) to visualize the nuclei by UV-microscopy. The percentages of apoptotic cells were determined by counting 300 GFP-positive cells, scoring cells having nuclear fragmentation and/or chromatin condensation.
DAPI staining was used to study the apoptotic effect of TR3/Bcl-2 interaction. 293T cells were transfected with GFP-TR3/ΔDBD alone or together with Bcl-2. After 36 h, nuclei were stained by DAPI and nuclear fragmentation and chromatin condensation were identified. Cells were also stained with anti-Bcl-2 antibody, followed by TRITC-conjugated secondary antibody (Sigma). Bcl-2 and GFP-ΔDBD expression and nuclear morphology were visualized by fluorescence microscopy, and the two images were overlaid. […] But, when Bcl-2 was cotransfected, a significant amount of transfected cells underwent apoptosis. For example, approximately 4% of cells transfected with either TR3/ΔDBD or Bcl-2 were apoptotic, compared to 35% of cell transfected with both. […] Cotransfection of Bcl-2, however, prevented BAX-induced apoptosis in these cells (see FIG. 4). The effect of Bcl-2 on apoptotic potential of TR3/ΔDBD in lung cancer and breast cancer cells was also investigated.
To characterize the pro-apoptotic mechanism of Bcl-2 in the setting of TR3-induced apoptosis, various TR3 mutants and Bcl-2 mutants were co-expressed in HEK293T cells. TR3 mutants were transfected into 293T cells together with or without Bcl-2 expression vector or with Bcl-2 mutants. After 36 h, nuclei were stained by DAPI. Cells displaying nuclear condensation or fragmentation were scored.
The role of various Bcl-2 mutants in mediating apoptosis induction by TR3 was next studied. […] The hydrophobic cleft of Bcl-2 is involved in its anti-apoptotic effect through its interaction with BH3 domain of pro-apoptotic molecules (Reed 1997 Semin Hematol 34:9-19; Reed 1997 Nature 387:773-776). To investigate whether the BH3 domain-binding motif of Bcl-2 is also involved in its apoptotic effect, various Bcl-2 mutants including Y108K Bcl-2, with a mutation in the BH3 domain-binding cleft, L137A, and G145A (all with impaired interaction with bax), were cotransfected together with TR3/ΔDBD. […] Bcl-2 mutations (Y108K, L137A, G145A) that impaired its interaction with Bax, abolished the Bcl-2 inhibitory effect on Bax-induced apoptosis, consistent with previous observations that the hydrophobic cleft of Bcl-2 is essential for its anti-apoptotic effect. […] Thus, an intact BH3 domain-binding motif in Bcl-2 is involved in its pro-apoptotic effect. In contrast to the inhibitory effect of Bcl-2 on Bax-induced apoptosis TR3/ΔDBD-induced apoptosis was augmented by co-expression of Bcl-2 in HEK293T cells.
Mitochondrial targeting of TR3 has been previously identified as being involved in its apoptotic effect. To study whether mitochondrial localization of the TR3/ΔDBD/Bcl-2 complex was involved in their apoptotic effect, TR3/ΔDBD was cotransfected with Bcl-2/ATM, a Bcl-2 lacking its transmembrane domain. […] Thus, mitochondrial localization of TR3/ΔDBD/Bcl-2 complex is involved in this apoptotic effect.

293T cells [2] = assay: Confocal microscopy of mitochondrial targeting in 293T cells; format: cell-based, human
Procedure: Subcellular localization assays—Cells were seeded onto cover-slips in 6-well plates overnight, then transiently transfected with GFP-fusion expression plasmids. After 16 hours, cells were washed with PBS and fixed in 4% paraformaldehyde. For mitochondrial staining, cells were then incubated with anti-Hsp60 goat IgG (Santa Cruz, USA), followed by anti-goat IgG conjugated with Cy3 (Sigma). For cyt c staining, cells were incubated with monoclonal anti-cyt c IgG (PharMingen), followed by anti-mouse IgG conjugated with Cy5 (Amersham). Fluorescent images were collected and analyzed using a MRC-1024 MP laser-scanning confocal microscope (Bio-Rad). Subcellular fractionation assays were performed as described (Li, et al. 2000 Science 289:1159-1164). Briefly, cells (1×10^7 cells) suspended in 0.5 ml hypotonic buffer (5 mM Tris-HCl, pH 7.4, 5 mM KCl, 1.5 mM MgCl2, 0.1 mM EGTA, pH 8.0, and 1 mM DTT) were homogenized and cell extracts were centrifuged at 500×g for 5 min. The resulting supernatant was centrifuged at 10,000×g for 30 min at 4° C. to obtain the HM fraction. HM fraction was resuspended in 100 μl lysis buffer (10 mM Tris, pH 7.4, 150 mM NaCl, 1% Triton X-100, 5 mM EDTA, pH 8.0) for immunoblotting analysis.
A. confocal microscopy—First an experiment was performed to determine whether the deletion mutant TR3/ΔDBD targets mitochondria via its interaction with Bcl-2. In confocal microscopy analysis, GFP-TR3/ΔDBD and Bcl-2 were transfected into 293T cells alone or together. […] Bcl-2, TR3/ΔDBD and mitochondria (Hsp60) were visualized using confocal microscopy and the three images were overlaid.

| Molecule | TR3-dependent apoptosis induced by TPA and 3-Cl-AHPC (LNCaP cells; LNCaP cells) | mitochondrial targeting of endogenous TR3 (LNCaP cells; LNCaP cells treated with TPA) | interaction with Bcl-2 (Co-IP) (Bcl-2) | apoptosis (293T cells [1]) | colocalization with mitochondria (293T cells [2]) | apoptosis (293T cells [1]; listed as TR3/ΔDBD/ADC1) |
| --- | --- | --- | --- | --- | --- | --- |
| B1 | suppressed TR3-dependent apoptosis | TR3 failed to target mitochondria |  |  |  |  |
| B2 |  |  | significantly impaired the interaction; also recorded: largely abolished the interaction | failed to confer the apoptotic potential of Bcl-2 | failed to colocalize with mitochondria |  |
| B3 |  |  | largely abolished the interaction | failed to confer the apoptotic potential of Bcl-2 |  |  |
| B4 |  |  | strongly interact with Bcl-2 | potently induced apoptosis |  |  |
| B5 |  |  | largely abolished the interaction | failed to confer the apoptotic potential of Bcl-2 |  | did not result in apoptosis |
